Broadly, the Kd is the constant that tells how readily two partners part at equilibrium.

For one substance, Kd results are on record in PMC8672344.

The target in this experiment is Y75H holo-HasAp (heme-loaded hemophore HasAp, Y75H variant) (Pseudomonas aeruginosa) (UniProt G3XD33). Description: SPR.

With “HasR outer membrane receptor in styrene-maleic acid lipid nanodisc (HasR-SMALP)”, the dissociation constant (Kd) is 394 nM.
